Experimental data taken from article PMC10516927, “DNA-bridging by an archaeal histone variant via a unique tetramerisation interface” (Communications Biology, 2023).

Tests used:
[1] = target: T1, MJ1647 (Methanocaldococcus jannaschii, UniProt Q59041 1-96); assay: DNA-bridging pull-down; conditions: EMSA: 50 nM DNA, 10 mM Tris/HCl pH 8.0, 222 mM NaCl, 0.4 mM TCEP, 0.1 mg/ml BSA, 5% glycerol, 37 C 15 min; agarose EMSA: same with 110 mM NaCl, no glycerol …
T1 sequence: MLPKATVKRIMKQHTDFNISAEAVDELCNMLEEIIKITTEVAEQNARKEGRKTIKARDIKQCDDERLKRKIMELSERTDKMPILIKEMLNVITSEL

[2] = target: MJ1647ΔTM, deletion variant of MJ1647 lacking the C-terminal 27 amino acids (Methanocaldococcus jannaschii) (UniProt Q59041); assay: SEC-MALS; 100 µl protein at 2.0 mg/ml on a Superose12 10/300 column in buffer N(250), 0.5 ml/min
[3] = target: MJ1647ΔTM, deletion variant of MJ1647 lacking the C-terminal 27 amino acids (Methanocaldococcus jannaschii) (UniProt Q59041); assay: native MS; nano-electrospray, protein exchanged into 0.5 M ammonium acetate, Synapt mass spectrometer
[4] = target: T2, MJ1647 E95K (Methanocaldococcus jannaschii, UniProt Q59041 1-96, E95K); assay: EMSA; faster (dimer) complex at low, tetramer complex at higher protein; EMSA: 50 nM DNA, 10 mM Tris/HCl pH 8.0, 222 mM NaCl, 0.4 mM TCEP, 0.1 mg/ml BSA, 5% glycerol, 37 C 15 min; agarose EMSA: same with 110 mM NaCl, no glycerol; TPM and bridging buffers not in the material; conditions: protein: recombinant; tags: untagged; chain copies: 2; label: Cy3 (Methods); 5'-32P for K80E and E95K; blunt
T2 sequence: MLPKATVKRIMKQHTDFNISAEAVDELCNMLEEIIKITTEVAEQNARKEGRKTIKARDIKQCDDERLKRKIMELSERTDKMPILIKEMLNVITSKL

[5] = target: T3, MJ1647 K80E (Methanocaldococcus jannaschii, UniProt Q59041 1-96, K80E); assay: as above; conditions: protein: recombinant; tags: untagged; chain copies: 2; label: Cy3 (Methods); 5'-32P for K80E and E95K; blunt
T3 sequence: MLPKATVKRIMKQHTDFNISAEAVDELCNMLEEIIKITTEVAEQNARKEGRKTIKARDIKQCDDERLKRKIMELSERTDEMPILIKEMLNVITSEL

[6] = target: T4, A3 (Methanocaldococcus jannaschii, UniProt Q58655 1-67); assay: EMSA; two species (one or two dimers); EMSA: 50 nM DNA, 10 mM Tris/HCl pH 8.0, 222 mM NaCl, 0.4 mM TCEP, 0.1 mg/ml BSA, 5% glycerol, 37 C 15 min; agarose EMSA: same with 110 mM NaCl, no glycerol; TPM and bridging buffers not in the material; conditions: protein: recombinant; tags: untagged; chain copies: 2; label: Cy3 (Methods); 5'-32P for K80E and E95K; blunt
T4 sequence: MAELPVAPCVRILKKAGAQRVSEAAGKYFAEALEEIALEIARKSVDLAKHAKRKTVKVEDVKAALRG

[7] = target: T1, MJ1647; assay: EMSA; single species; EMSA: 50 nM DNA, 10 mM Tris/HCl pH 8.0, 222 mM NaCl, 0.4 mM TCEP, 0.1 mg/ml BSA, 5% glycerol, 37 C 15 min; agarose EMSA: same with 110 mM NaCl, no glycerol; TPM and bridging buffers not in the material; conditions: protein: recombinant; tags: untagged; chain copies: 4; label: Cy3 (Methods); 5'-32P for K80E and E95K; blunt
[8] = target: T5, MJ1647ΔTM (Methanocaldococcus jannaschii, UniProt Q59041 1-69, del70-96); assay: EMSA; pattern identical to A3; EMSA: 50 nM DNA, 10 mM Tris/HCl pH 8.0, 222 mM NaCl, 0.4 mM TCEP, 0.1 mg/ml BSA, 5% glycerol, 37 C 15 min; agarose EMSA: same with 110 mM NaCl, no glycerol; TPM and bridging buffers not in the material; conditions: protein: recombinant, tags: untagged, chain copies: 2, label: Cy3 (Methods), blunt
T5 sequence: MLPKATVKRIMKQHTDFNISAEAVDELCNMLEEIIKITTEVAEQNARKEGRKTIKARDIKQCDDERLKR

[9] = target: T4, A3; assay: EMSA; single shifted species; EMSA: 50 nM DNA, 10 mM Tris/HCl pH 8.0, 222 mM NaCl, 0.4 mM TCEP, 0.1 mg/ml BSA, 5% glycerol, 37 C 15 min; agarose EMSA: same with 110 mM NaCl, no glycerol; TPM and bridging buffers not in the material; conditions: protein: recombinant; tags: untagged; chain copies: 2; label: Cy3 (Methods); blunt
[10] = target: the molecule itself; assay: SEC-MALS; 100 µl protein at 2.0 mg/ml on a Superose12 10/300 column in buffer N(250), 0.5 ml/min
[11] = target: T6, histone variant MJ1647 from Methanocaldococcus jannaschii (Methanocaldococcus jannaschii (strain …, UniProt Q59041)); assay: co-expression with SEC and BS3 cross-linking/SDS-PAGE
T6 chain: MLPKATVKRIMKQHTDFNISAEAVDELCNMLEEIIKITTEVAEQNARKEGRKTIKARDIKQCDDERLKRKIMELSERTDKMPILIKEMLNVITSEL

[12] = target: the molecule itself; assay: crystal structure; X-ray, 1.9 Å; crystals from 0.1 M NaOAc pH 4.6, 10% PEG3350, 5% tacsimate pH 4.6; four chains in the asymmetric unit as two dimers
[13] = target: the molecule itself; assay: cross-linking; BS3 (5 mM), 20 µM monomers, modified N(200) buffer with 10 mM HEPES/NaOH pH 7.5, 25 °C 40 min, SDS-PAGE with SYPRO-Orange; A3 alone, MJ1647 alone and co-expressed A3 and MJ1647; no DNA
[14] = target: the molecule itself; assay: SEC; elution profiles of purified wild-type MJ1647 and its charge-reversal and cysteine variants compared

With 685 bp TPM/bridging substrate the K half [1] was 2500 nM.

“MJ1647ΔTM, deletion variant of MJ1647 lacking the C-terminal 27 amino acids (from UniProt Q59041 1-96) (domain or fragment)” showed a stoichiometry N [2] of 2 and a stoichiometry N [3] of 2.

B1: 60 bp EMSA template (dsDNA)
DNA 1: CATACTGGTTCCAAAGCATGAAATAGTTCCAAAAGAAGAAGTTGAGGAGTTTTGAAGAGA
DNA 2: TCTCTTCAAAACTCCTCAACTTCTTCTTTTGGAACTATTTCATGCTTTGGAACCAGTATG
B1: binds [4]; binds [5]; binds [6]. B1: binds [7]; binds ([8]; 5'-32P for K80E and E95K).

B2: 30 bp EMSA template (dsDNA)
DNA 1: CATACTGGTTCCAAAGCATGAAATAGTTCCAA
DNA 2: TTGGAACTATTTCATGCTTTGGAACCAGTATG
B2: binds [9]; binds [8].

B3: histone A3 (MJ1258) from Methanocaldococcus jannaschii (natural protein, UniProt Q58655 1-67, looked up)
chain: MAELPVAPCVRILKKAGAQRVSEAAGKYFAEALEEIALEIARKSVDLAKHAKRKTVKVEDVKAALRG
notes: canonical histone A3 of Methanocaldococcus jannaschii, gene MJ1258, cloned into pET-21a(+) via NdeI and XhoI for expression of untagged protein; expected dimer mass 14.5 kDa; Untagged; also called canonical histone A3; source: E. coli Rosetta 2(DE3), purified (heparin, SP Sepharose, SEC); also co-expressed with MJ1647 from pETDuet-1 in E. coli and purified in the same way
In the case of B3, the “stoichiometry N” value [10] is reported as 2 and the binding result [11] is reported as “no binding”.

B4: histone variant MJ1647 from Methanocaldococcus jannaschii (natural protein)
chain: MLPKATVKRIMKQHTDFNISAEAVDELCNMLEEIIKITTEVAEQNARKEGRKTIKARDIKQCDDERLKRKIMELSERTDKMPILIKEMLNVITSEL
notes: histone paralogue MJ1647 of Methanocaldococcus jannaschii, histone fold followed by a C-terminal extension of 27 amino acids (tetramerisation module, TM); gene cloned into pET-21a(+) via NdeI and XhoI for expression of untagged protein; expected tetramer mass 44.8 kDa; Untagged; Tetramer in solution (SEC-MALS, native MS); crystallised as dimers at pH 4.6; also called wild-type MJ1647; WT MJ1647; …
B4 was tested, and the “stoichiometry N” value [12] was 2 and the “stoichiometry N” value [13] was 4.

B5: MJ1647 C28S/C62S (cysteine-free background) (natural protein, Methanocaldococcus jannaschii)
chain: MLPKATVKRIMKQHTDFNISAEAVDELSNMLEEIIKITTEVAEQNARKEGRKTIKARDIKQSDDERLKRKIMELSERTDKMPILIKEMLNVITSEL
notes: MJ1647 of Methanocaldococcus jannaschii with its two cysteines replaced by serine (C28S, C62S); also called C28S/C62S variant; source: E. coli, purified (as the wild type)
B5 was tested, and the “stoichiometry N” value [14] was 4.

B6: MJ1647 C28S/C62S/K80C (natural protein, Methanocaldococcus jannaschii)
chain: MLPKATVKRIMKQHTDFNISAEAVDELSNMLEEIIKITTEVAEQNARKEGRKTIKARDIKQSDDERLKRKIMELSERTDCMPILIKEMLNVITSEL
notes: MJ1647 of Methanocaldococcus jannaschii with C28S, C62S and K80C; also called single-cysteine substitution K80C; source: E. coli, purified (as the wild type)
B6 was tested, and the “stoichiometry N” value [14] was 4.

B7: MJ1647 K80E/E95K double charge-reversal mutant (natural protein, Methanocaldococcus jannaschii)
chain: MLPKATVKRIMKQHTDFNISAEAVDELCNMLEEIIKITTEVAEQNARKEGRKTIKARDIKQCDDERLKRKIMELSERTDEMPILIKEMLNVITSKL
notes: MJ1647 of Methanocaldococcus jannaschii with the substitutions K80E and E95K; source: E. coli, purified (as the wild type; plasmid by site-directed mutagenesis or NEBuilder HiFi DNA assembly)
B7 was tested, and the “stoichiometry N” value [14] was 4.

B8: MJ1647 C28S/C62S/E95C (natural protein, Methanocaldococcus jannaschii)
chain: MLPKATVKRIMKQHTDFNISAEAVDELSNMLEEIIKITTEVAEQNARKEGRKTIKARDIKQSDDERLKRKIMELSERTDKMPILIKEMLNVITSCL
notes: MJ1647 of Methanocaldococcus jannaschii with C28S, C62S and E95C; also called single-cysteine substitution E95C; source: E. coli, purified (as the wild type)
For B8, the “stoichiometry N” value [14] was 4.

B9: MJ1647 E95K charge-reversal mutant (natural protein, Methanocaldococcus jannaschii)
chain: MLPKATVKRIMKQHTDFNISAEAVDELCNMLEEIIKITTEVAEQNARKEGRKTIKARDIKQCDDERLKRKIMELSERTDKMPILIKEMLNVITSKL
notes: MJ1647 of Methanocaldococcus jannaschii with the substitution E95K; source: E. coli, purified (as the wild type; plasmid by site-directed mutagenesis or NEBuilder HiFi DNA assembly)
B9: binds [14].

B10: MJ1647 K80E charge-reversal mutant (natural protein, Methanocaldococcus jannaschii)
chain: MLPKATVKRIMKQHTDFNISAEAVDELCNMLEEIIKITTEVAEQNARKEGRKTIKARDIKQCDDERLKRKIMELSERTDEMPILIKEMLNVITSEL
notes: MJ1647 of Methanocaldococcus jannaschii with the substitution K80E; source: E. coli, purified (as the wild type; plasmid by site-directed mutagenesis or NEBuilder HiFi DNA assembly)
B10: binds [14].

B11: MJ1647 C28S/C62S/K80C/E95C (double-cysteine variant) (natural protein, Methanocaldococcus jannaschii)
chain: MLPKATVKRIMKQHTDFNISAEAVDELSNMLEEIIKITTEVAEQNARKEGRKTIKARDIKQSDDERLKRKIMELSERTDCMPILIKEMLNVITSCL
modifications: disulfide bond between C80 and C95 of two chains (reduced only at 25 mM TCEP)
notes: MJ1647 of Methanocaldococcus jannaschii with C28S, C62S, K80C and E95C; also called double-cysteine substitution; source: E. coli, purified (as the wild type)
For B11, the “stoichiometry N” value [14] was 4.
